# Laboratory results from the DeepSol protein solubility set.
# Test: soluble on expression in E. coli; label from the status in PepcDB or PDB records
row,Sequence,soluble on expression in E. coli
1,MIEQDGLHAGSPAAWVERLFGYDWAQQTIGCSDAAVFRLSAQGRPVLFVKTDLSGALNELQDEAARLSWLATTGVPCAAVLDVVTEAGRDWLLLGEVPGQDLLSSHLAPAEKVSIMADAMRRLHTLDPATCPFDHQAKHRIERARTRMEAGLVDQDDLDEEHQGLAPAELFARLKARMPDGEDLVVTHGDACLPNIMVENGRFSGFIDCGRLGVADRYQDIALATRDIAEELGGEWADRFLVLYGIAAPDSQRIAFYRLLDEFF,soluble
2,MKYVDGFVVAVPADKKDAYREMAAKAAPLFKEFGALRIVECWASDVPDGKVTDFRMAVKAEENEEVVFSWIEYPSKEVRDAANQKMMSDPRMKEFGESMPFDGKRMIYGGFESIIDE,soluble
3,MLQPPFNIKVTNITLTTAVVTWQPPILPIEGILVTFGRKNDPSDETTVDLTSSITSLTLTNLEPNTTYEIRIVARNGQQYSPPVSTTFTTGSLEHHHHHH,soluble
4,MSSRHRLDLDGSGRGDRRRSPNRRSRSRSRSPHRRSSPDRKRQIGAVGNMKIQINPYNNQPFSNRYWAIWEKRSQLPVWEYKEKFMELLRNNQCITLVGETGSGKTTQIPQWAVEFMKQQQQGQPPGQARLVACTQPRRVAAMSVATRVAEEMDVVLGQEVGYSIRFEDCISERTVLKYCTDGMLLREAMNSPLLDKYKVLILDEAHERTLATDILMGLIKEIVRNRADIKVVIMSATLDAGKFQRYFEDCPLLSVPGRTFPVEIFFTPNAEKDYLEAAIRTVIQIHMVEEVEGDILLFLTGQEEIEEACKRIDREIQALGADAGALSCIPLYSTLPPAAQQRIFEPAPPNRPNGAISRKCVISTNIAETSLTIDGVVFVIDPGFSKQKVYNPRIRVESLLVCPISKASAMQRAGRAGRTKPGKCFRLYTETAYGSEMQDQTYPEILRSNLGSVVLQLKKLGTEDLVHFDFMDPPAPETLMRALELLNYLQAINDDGELTELGSLMAEFPLDPQLAKMLITSTELNCSNEILSITAMLSVPQCWVRPNEMRTEADEAKARFAHIDGDHLTLLNVYHSFKQNQEDPQWCYDNFINYRTMKTADTVRTQLSRVMDKYNLRRVSTDFKSRDYYLNIRKALVAGFFMQVAHLERSGHYVTVKDNQLVNLHPSTVLDHKPEWALYNEFVLTTKNFIRTVTDVRPEWLLQIAPQYYDLDNFPDGDTKRKLTTVMQTLQRNAGRGY,soluble
5,MLYIPQFSIYFCLGYLLLFCKISNAVKQSWEINQELITEANKEHTVFGDMLLTPAQLIRYENSKDSDLSIRGVSIKGSSMNRWSNNIVPYVISPQYSPAQKQILVSSLRYFERVSCFKFVERTTQNDYLFIVPLDGCYSYVGKIGGRQTLSLAADCIADYIIWHEMMHAIGFEHEHQRPDRDSFIRVDYANVIPGQMINFDKLKTSHVEYPDIYDFKSIMHYDGYAFGRVDTARRVRLATMTPLKPGVTLEDNMKFTATDIEKLNRLGQCGARGGQYSNQGVVASTCQDVATAVSCEGNRRRGMCKNPFYKQMMIKSCQKTCRLCSYTRMIDEDDDLTPNTTVKSVKCEDKHPRCDIYSHNGFCTLPFYDDVRYQLCAKTCNLC,not soluble
6,STNVFIMGHVNPDIDCIGGAIGLYSVLSSKVDGDVHIVLDDTSSSVEGIVNRLVENYDEYKNVFMRSSDCIELIDQGSILILDDVNSRNYVLSEKILEEISKVVVIDHHRRAANYIKDTILSYIESYASSTSELVTEMIQYMDENHKLKPIEAEALLAGIVVDTKNFSFKTGVRTFEAAAFLRKNGADTIEIKKLFSNDL,not soluble
